Positions of bridges follow the written chain, without caps; N, C: chain ends. No end group written: not given here. Linker 15a = not defined here; Linker 15b = not defined here; Linker 10 = not defined here; Linker 11 = not defined here; Linker 12 = not defined here; Linker 13 = not defined here; Linker 16 = not defined here; Linker 7 = not defined here
Target: T1, full-length β-Catenin (UniProt P35222 2-781, limits assumed)
T1 construct: mature; also called beta-catenin; beta-Catenin
T1 sequence (looked up): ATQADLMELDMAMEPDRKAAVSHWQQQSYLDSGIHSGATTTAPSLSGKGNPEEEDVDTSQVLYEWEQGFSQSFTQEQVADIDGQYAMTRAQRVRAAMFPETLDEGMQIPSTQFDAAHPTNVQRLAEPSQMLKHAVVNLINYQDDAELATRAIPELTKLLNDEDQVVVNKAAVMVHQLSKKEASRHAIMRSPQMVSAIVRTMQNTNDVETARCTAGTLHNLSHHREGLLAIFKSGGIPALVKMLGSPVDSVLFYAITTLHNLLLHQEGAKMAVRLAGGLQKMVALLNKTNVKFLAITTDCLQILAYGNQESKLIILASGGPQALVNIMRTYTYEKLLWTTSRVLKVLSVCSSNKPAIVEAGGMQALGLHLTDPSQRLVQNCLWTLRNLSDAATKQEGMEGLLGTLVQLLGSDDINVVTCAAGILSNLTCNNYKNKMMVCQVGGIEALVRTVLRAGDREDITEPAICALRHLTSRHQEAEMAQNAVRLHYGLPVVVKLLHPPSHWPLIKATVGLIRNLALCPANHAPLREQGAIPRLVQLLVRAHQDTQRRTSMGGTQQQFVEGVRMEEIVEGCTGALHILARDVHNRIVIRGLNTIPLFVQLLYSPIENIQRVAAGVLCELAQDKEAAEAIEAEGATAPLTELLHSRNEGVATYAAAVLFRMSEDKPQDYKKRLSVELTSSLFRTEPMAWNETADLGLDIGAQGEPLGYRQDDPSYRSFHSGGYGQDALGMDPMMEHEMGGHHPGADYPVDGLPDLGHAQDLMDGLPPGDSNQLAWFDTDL
Assay: competition fluorescence polarization vs FITC-Axin peptide probe on full-length beta-catenin
Experimental: Peptide assessment: In one assay for assessing binding to beta-catenin, peptide solutions were prepared in buffer (50 mM Tris pH 8.0, 250 mM NaCl, 2% glycerol, 0.5 mM EDTA, 0.02% w/v sodium azide) using a 3-fold serial dilution from 5 μM. Probe solution (15 nM full-length β-Catenin, 20 nM FITC labeled Axin peptide in buffer ([FAM-PEG1-RRWPR(S5)ILD(S5)HVRRVWR (SEQ ID NO: 44)] where the two S5 residues are stapled, as reported in: Proc Natl Acad Sci USA. 2012 Oct. 30; 109(44):17942-7)) was prepared and incubated for 5 minutes, then 40 μL per well plated in a black polystyrene 384-well plate (Corning). Equal volume of the titrated peptide was added to the plate and incubated protected from light for 15 minutes prior to read. Reads were performed on a Spectramax M5 (Molecular Devices) in duplicate.

**Q.** Which EC50 does the source give for ADPALWACEHAALICETQ (linker 8-15 via Linker 12 (inferred); reading uncertain, synthetic cysteine-stapled peptide) [Peptide ID 42, ADPALWACEHAALICETQ, staple type Linker 12] here?
**A.** The EC50 was 4.52 µM.

**Q.** For ADPAEDECILAAHMCRWW (linker 8-15 via Linker 7 (inferred); reading uncertain, synthetic cysteine-stapled peptide) [Peptide ID 8, ADPAEDECILAAHMCRWW, staple type Linker 7], which EC50 is on record?
**A.** The EC50 was 0.255 µM.

**Q.** Which EC50 does the source give for ADPAYWLCEHAALICEVE (linker 8-15 via Linker 7 (inferred); reading uncertain, synthetic cysteine-stapled peptide) [Peptide ID 13, ADPAYWLCEHAALICEVE, staple type Linker 7] here?
**A.** Its EC50 is 0.456 µM.

**Q.** How did the EC50 turn out when ADPAPWQCEHAALLCELE (linker 8-15 via Linker 7 (inferred); reading uncertain, synthetic cysteine-stapled peptide) [Peptide ID 11, ADPAPWQCEHAALLCELE, staple type Linker 7] was run?
**A.** The EC50 was 0.922 µM.

**Q.** For ADPALWACEHAALICETQ (linker 8-15 via Linker 15b (inferred); reading uncertain, synthetic cysteine-stapled peptide) [Peptide ID 45, ADPALWACEHAALICETQ, staple type Linker 15b], which EC50 is on record?
**A.** Its EC50 is 5.57 µM.

**Q.** Which EC50 does the source give for ADPALWACEHAALICETQ (linker 8-15 via Linker 16 (inferred); reading uncertain, synthetic cysteine-stapled peptide) [Peptide ID 46, ADPALWACEHAALICETQ, staple type Linker 16] here?
**A.** The EC50 was 5.82 µM.

**Q.** For ADPATHRCEWAALHCELV (linker 8-15 via Linker 12 (inferred); reading uncertain, synthetic cysteine-stapled peptide) [Peptide ID 33, ADPATHRCEWAALHCELV, staple type Linker 12], which EC50 is on record?
**A.** Its EC50 is 5.35 µM.

**Q.** How did the EC50 turn out when ADPATHRCEWAALHCELV (linker 8-15 via Linker 11 (inferred); reading uncertain, synthetic cysteine-stapled peptide) [Peptide ID 32, ADPATHRCEWAALHCELV, staple type Linker 11] was run?
**A.** The EC50 was 5.17 µM.

**Q.** With ADPALWACEHAALICETQ (linker 8-15 via Linker 10 (inferred); reading uncertain, synthetic cysteine-stapled peptide) [Peptide ID 40, ADPALWACEHAALICETQ, staple type Linker 10] as the binder, how does the EC50 read?
**A.** Its EC50 is 9.55 µM.

**Q.** With ADPAQWPCEHAALLCEIE (linker 8-15 via Linker 7 (inferred); reading uncertain, synthetic cysteine-stapled peptide) [Peptide ID 14, ADPAQWPCEHAALLCEIE, staple type Linker 7] as the binder, how does the EC50 read?
**A.** Its EC50 is 0.404 µM.

**Q.** For ADPATHRCEWAALHCELV (linker 8-15 via Linker 7 (inferred); reading uncertain, synthetic cysteine-stapled peptide) [Peptide ID 1, ADPATHRCEWAALHCELV, staple type Linker 7], which EC50 is on record?
**A.** Its EC50 is 5.2 µM.

**Q.** With ADPAQDHCILDTHICRIW (linker 8-15 via Linker 7 (inferred); reading uncertain, synthetic cysteine-stapled peptide) [Peptide ID 6, ADPAQDHCILDTHICRIW, staple type Linker 7] as the binder, how does the EC50 read?
**A.** The EC50 was 0.047 µM.

**Q.** ADPAEDECILNNHICRIW (linker 8-15 via Linker 7 (inferred); reading uncertain, synthetic cysteine-stapled peptide) [Peptide ID 7, ADPAEDECILNNHICRIW, staple type Linker 7] was tested. Which EC50 did it give?
**A.** Its EC50 is 0.014 µM.

**Q.** How did the EC50 turn out when ADPALWACEHAALICETQ (linker 8-15 via Linker 15a (inferred); reading uncertain, synthetic cysteine-stapled peptide) [Peptide ID 44, ADPALWACEHAALICETQ, staple type Linker 15a] was run?
**A.** Its EC50 is 7.33 µM.

**Q.** With ADPALWACEHAALICETQ (linker 8-15 via Linker 13 (inferred); reading uncertain, synthetic cysteine-stapled peptide) [Peptide ID 43, ADPALWACEHAALICETQ, staple type Linker 13] as the binder, how does the EC50 read?
**A.** The EC50 was 4.59 µM.

**Q.** With ADPADWECEHAALICDAM (linker 8-15 via Linker 7 (inferred); reading uncertain, synthetic cysteine-stapled peptide) [Peptide ID 12, ADPADWECEHAALICDAM, staple type Linker 7] as the binder, how does the EC50 read?
**A.** The EC50 was 0.815 µM.

**Q.** How did the EC50 turn out when ADPALADCILAAHMCQLW (linker 8-15 via Linker 7 (inferred); reading uncertain, synthetic cysteine-stapled peptide) [Peptide ID 4, ADPALADCILAAHMCQLW, staple type Linker 7] was run?
**A.** Its EC50 is 5.52 µM.

**Q.** For ADPAHAECVLDYHICQIW (linker 8-15 via Linker 7 (inferred); reading uncertain, synthetic cysteine-stapled peptide) [Peptide ID 5, ADPAHAECVLDYHICQIW, staple type Linker 7], which EC50 is on record?
**A.** Its EC50 is 0.117 µM.

**Q.** Which EC50 does the source give for ADPAQWHCEHAALICELD (linker 8-15 via Linker 7 (inferred); reading uncertain, synthetic cysteine-stapled peptide) [Peptide ID 10, ADPAQWHCEHAALICELD, staple type Linker 7] here?
**A.** The EC50 was 0.417 µM.

**Q.** Which EC50 does the source give for ADPATHRCEWAALHCELV (linker 8-15 via Linker 13 (inferred); reading uncertain, synthetic cysteine-stapled peptide) [Peptide ID 34, ADPATHRCEWAALHCELV, staple type Linker 13] here?
**A.** The EC50 was 4.32 µM.

**Q.** How did the EC50 turn out when ADPALWACEHAALICETQ (linker 8-15 via Linker 11 (inferred); reading uncertain, synthetic cysteine-stapled peptide) [Peptide ID 41, ADPALWACEHAALICETQ, staple type Linker 11] was run?
**A.** Its EC50 is 3.02 µM.

**Q.** ADPALWACEHAALICETQ (linker 8-15 via Linker 7 (inferred); reading uncertain, synthetic cysteine-stapled peptide) [Peptide ID 2, ADPALWACEHAALICETQ, staple type Linker 7] was tested. Which EC50 did it give?
**A.** Its EC50 is 2.8 µM.
